Laboratory results published in publication doi:10.1101/2021.12.03.471045 (bioRxiv, 2021).

B1: mAb 158 Fab (Fab, V domains shown)
VH: EVQLLESGGDLIQPGGSLRLSCAASGVTVSSNYMSWVRQAPGKGLEWVSIIYPGGSTFYADSVKGRFTISRDNSKNTLYLQMHSLRAEDTAVYYCARDLGSGDMDVWGKGTTVTVSS
VL: DIVMTQSPSFLSASVGDRVTITCRASQGISSYLAWYQQKPGKAPKLLIQAASTLQSGVPSRFSGSGSGTEFTLTISSLQPEDFATYYCQQLNSYRYTFGQGTKVEIK
B2: mAb 58 Fab (Fab, V domains shown)
VH: QVQLVESGGGLVQPGRSLRLSCAASGFTFDDYAMHWVRQPPGKGLEWVSGVSWNSGTIGYADSVKGRFIISRDNAKNSLYLQMNSLKAEDTALYYCAREVGGTFGVLISREGGLDYWGQGTLVTVSS
VL: SYELTQPPSVSVAPGQTARITCGGNTIGSKSVHWYQQRPGQAPVLVVYDDSDRPSGIPERFSGSNSGNTATLTISRVEAGDEADYYCQVWDSSSDRVVFGGGTKLTVL

Biological target: early pandemic (Wuhan) SARS-CoV-2 RBD (SARS-CoV-2, UniProt P0DTC2)
Assay: crystal structure
Settings: both partners purified

Row | Binder | binding result
1 | B1 | binds
2 | B2 | binds
